{"source": "paper doi:10.1101/2023.07.25.550521", "key": {"[1]": {"biological_target": "MADD (DENN/MADD, RAB3-GEP) (UniProt Q8WXG6)", "test": "GFP-Trap co-IP, HA blot", "conditions": "reference: wild type; sites T86"}, "RAB-GDI1": {"biological_target": "RAB-GDI1 (UniProt P31150)", "test": "GFP-Trap co-IP, RAB-GDI1 blot", "conditions": "reference: wild type; sites T86"}}, "data": [{"substance": "RAB3A (from UniProt P20336) T86A", "values": [{"measurement": "binding against the reference", "setting": "[1]", "value": "stronger"}, {"measurement": "binding against the reference", "setting": "RAB-GDI1", "value": "stronger"}]}]}
